Assay [1] addresses recombinant soluble mouse FcRn (mouse) (UniProt Q61559). Briefly: inhibition of 125I-sFcRn binding to murine IgG1-Sepharose; molar ratio of inhibitor/FcRn given as 1/500.
The target of assay [2] is T1, FcRn of neonatal mouse intestine (mouse) (UniProt Q61559).
T1 sequence (looked up): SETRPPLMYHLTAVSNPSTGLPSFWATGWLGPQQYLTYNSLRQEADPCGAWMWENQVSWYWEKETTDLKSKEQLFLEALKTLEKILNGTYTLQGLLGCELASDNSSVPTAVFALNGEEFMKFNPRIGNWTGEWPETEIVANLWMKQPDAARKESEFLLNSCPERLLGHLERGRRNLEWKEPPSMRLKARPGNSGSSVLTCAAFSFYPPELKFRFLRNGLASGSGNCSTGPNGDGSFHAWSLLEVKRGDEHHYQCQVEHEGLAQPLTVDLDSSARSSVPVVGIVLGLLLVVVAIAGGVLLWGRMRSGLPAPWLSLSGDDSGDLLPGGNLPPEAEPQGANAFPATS
T1 sequence (b2m, looked up): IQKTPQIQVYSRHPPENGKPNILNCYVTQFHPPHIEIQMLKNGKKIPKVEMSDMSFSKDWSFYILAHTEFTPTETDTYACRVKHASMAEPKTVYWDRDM
Briefly: cell-based or functional assay.

Assay [3] addresses recombinant soluble mouse FcRn (mouse) (UniProt Q61559). Nature of the assay: inhibition of 125I-sFcRn binding to murine IgG1-Sepharose; molar ratio of inhibitor/FcRn given as 1/1000.

B1: complete murine IgG1 molecule (antibody, part only; not given: variable domains and Fab arms, not shown: another chain or arm of the molecule)
Fc: VPRDCGCKPCICTVPEVSSVFIFPPKPKDVLTITLTPKVTCVVVDISKDDPEVQFSWFVDDVEVHTAQTQPREEQFNSTFRSVSELPIMHQDWLNGKEFKCRVNSAAFPAPIEKTISKTKGRPKAPQVYTIPPPKEQMAKDKVSLTCMITDFFPEDITVEWQWNGQPAENYKNTQPIMNTNGSYFVYSKLNVQKSNWEAGNTFTCSVLHEGLHNHHTEKSLSHSPGK
modifications: Glycosylated whole IgG1 from hybridoma or mammalian cells; used free, 125I-labelled or coupled to Sepharose. Two heavy chains are joined at the hinge.
On to B1, for which the % inhibition was found to be 24.7% in assay [1] and 45.6% in assay [3]. In assay [2], this molecule returned an Inhibition of transmission (%) of radiolabeled mIgG1 across the intestine of neonatal mice of 51.4%.

For orientation: % inhibition means how much of the control response was suppressed.

(Values after patent publication US20020098193A1.)
